Results: publication PMC8689207

Target: far-red light-acclimated photosystem I (FRL-PSI) complex of Synechococcus sp. PCC 7335, trimeric (Synechococcus sp. PCC 7335 (endogenous in Synechococcus 7335 cells))
Experiment: cryo-EM structure; trimeric FRL-PSI isolated whole from FRL-grown Synechococcus 7335 cells (1% β-DM, two sucrose gradients, PIB: 50 mM MES pH 6.5, 15 mM CaCl2, 10 mM MgCl2); Fd not added; ~3 mg Chl/ml, plunge-frozen at 4 °C; C3 symmetry, 2.91 Å

| stoichiometry N | occupancy [%] | Substance |
| --- | --- | --- |
| 3 |  | far-red light-acclimated photosystem I (FRL-PSI) complex of Synechococcus sp. PCC 7335, trimeric |
|  | 10 | ferredoxin PetF1 (soluble [2Fe-2S] ferredoxin) of Synechococcus sp. PCC 7335 (natural protein) |
